We go through 11 molecules from patent EP4588489A1, “LINKER FOR ANTIBODY-DRUG CONJUGATE AND USE THEREOF” (priority 2022, dated 2024).

Where a chain is given by its changes, count along the chain named.

The chains are these.
T1: TROP2 (UniProt P09758 27-323, limits assumed)
T1 sequence (looked up): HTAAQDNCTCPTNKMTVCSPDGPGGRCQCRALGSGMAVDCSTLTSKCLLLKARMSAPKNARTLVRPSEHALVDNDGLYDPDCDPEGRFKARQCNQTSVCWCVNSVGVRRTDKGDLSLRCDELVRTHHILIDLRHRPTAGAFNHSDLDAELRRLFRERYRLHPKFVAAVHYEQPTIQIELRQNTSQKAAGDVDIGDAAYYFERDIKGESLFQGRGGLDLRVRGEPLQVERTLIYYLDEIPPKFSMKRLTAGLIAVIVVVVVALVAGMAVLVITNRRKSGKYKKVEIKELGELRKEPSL

T2: BCMA (UniProt Q02223 1-184, limits assumed)
T2 sequence (looked up): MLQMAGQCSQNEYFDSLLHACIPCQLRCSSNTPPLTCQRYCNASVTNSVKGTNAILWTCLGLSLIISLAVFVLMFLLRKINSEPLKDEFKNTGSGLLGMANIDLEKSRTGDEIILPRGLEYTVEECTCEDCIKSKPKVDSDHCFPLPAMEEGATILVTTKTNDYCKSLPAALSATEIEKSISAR

B1: ADC01 (Datopotamab conjugated to GGFG-Dxd) (antibody, human IgG1, kappa, V domains shown)
VH: QVQLVQSGAEVKKPGASVKVSCKASGYTFTTAGMQWVRQAPGQGLEWMGWINTHSGVPKYAEDFKGRVTISADTSTSTAYLQLSSLKSEDTAVYYCARSGFGSSYWYFDVWGQGTLVTVSS
VL: DIQMTQSPSSLSASVGDRVTITCKASQDVSTAVAWYQQKPGKAPKLLIYSASYRYTGVPSRFSGSGSGTDFTLTISSLQPEDFAVYYCQQHYITPLTFGQGTKLEIKR
modifications: linker-drug GGFG-Dxd on cysteines of reduced interchain disulfides; average DAR 3.73
B2: ADC05 (hRS7 conjugated to CPD3) (antibody, human IgG1, kappa, V domains shown)
VH: QVQLQQSGSELKKPGASVKVSCKASGYTFTNYGMNWVKQAPGQGLKWMGWINTYTGEPTYTDDFKGRFAFSLDTSVSTAYLQISSLKADDTAVYFCARGGFGSSYWYFDVWGQGSLVTVSS
VL: B1 VL with M4L, T20S, T31I, S60D, Q100A, L104V
modifications: linker-drug CPD3 on cysteines of reduced interchain disulfides; average DAR 3.99
B3: ADC02 (hRS7 conjugated to GGFG-Dxd) (antibody, human IgG1, kappa, V domains shown)
VH: B2 VH
VL: B1 VL with M4L, T20S, T31I, S60D, Q100A, L104V
modifications: linker-drug GGFG-Dxd on cysteines of reduced interchain disulfides; average DAR 3.69
B4: ADC03 (hRS7 conjugated to CPD1) (antibody, human IgG1, kappa, V domains shown)
VH: B2 VH
VL: B1 VL with M4L, T20S, T31I, S60D, Q100A, L104V
modifications: linker-drug CPD1 on cysteines of reduced interchain disulfides; average DAR 3.82
B5: ADC04 (hRS7 conjugated to CPD2) (antibody, human IgG1, kappa, V domains shown)
VH: B2 VH
VL: B1 VL with M4L, T20S, T31I, S60D, Q100A, L104V
modifications: linker-drug CPD2 on cysteines of reduced interchain disulfides; average DAR 3.92
B6: anti-BCMA-005-Hu178-vcMMAF-D4 (antibody, human IgG1, kappa, V domains shown)
VH: EVQLVESGGGLVKPGGSLRLSCAASGFTFSNFDMAWVRQAPGKGLEWVASIVTRGDDTYYRDSVRGRFTISRDNAKNTQYLQMNSLRAEDTAVYYCARHDYGGPSGWFGYWGQGTLVTVSS
VL: DIQMTQSPSSLSASVGDRVTITCRASQGFSNNLNWYQQKPGKTPKPLIYYTSNLHSGVPSRFSGSGSGTDYSLTISSLQPEDFATYYCQQDASFPPTFGQGTKLEIKR
modifications: vc-MMAF on cysteines of reduced interchain disulfides; HIC-DAR 3.86
B7: anti-BCMA-005-Hu178-glucoseMMAE-NC-D4 (antibody, human IgG1, kappa, V domains shown)
VH: B6 VH
VL: B6 VL
modifications: Linker-MMAE derivative 1 on cysteines of reduced interchain disulfides; HIC-DAR 3.73
B8: anti-BCMA-005-Hu178-OMeMMAE-D4 (antibody, human IgG1, kappa, V domains shown)
VH: B6 VH
VL: B6 VL
modifications: Linker-MMAE derivative 2 on cysteines of reduced interchain disulfides; HIC-DAR 3.79
B9: anti-BCMA-005-Hu178-vcMMAE-D4 (antibody, human IgG1, kappa, V domains shown)
VH: B6 VH
VL: B6 VL
modifications: vc-MMAE on cysteines of reduced interchain disulfides; HIC-DAR 3.78
B10: anti-BCMA-005-Hu178-CPD-D4 (antibody, human IgG1, kappa, V domains shown)
VH: B6 VH
VL: B6 VL
modifications: linker-drug CPD1 on cysteines of reduced interchain disulfides; HIC-DAR 4.24
B11: anti-BCMA-005-Hu178-CPD-D8 (antibody, human IgG1, kappa, V domains shown)
VH: B6 VH
VL: B6 VL
modifications: linker-drug CPD1 on cysteines of reduced interchain disulfides; HIC-DAR 7.73

The first experiment concerns the target T1, TROP2. The experiment in a line: cell-based or functional assay.
In the case of B1, the “A431 IC50/µg/mL (in vitro cell viability assay)” value turned out to be 0.11 µg/mL. Still for that read-out and setting: as for B2, the figure is 0.024 µg/mL. Same read-out and setting: the value for B3 was 0.057 µg/mL; that for B4 was 0.074 µg/mL. On the same count and under the same terms, the value for B5 was 0.048 µg/mL.

A further experiment deals with T2, BCMA. The experiment in a line: cell-based or functional assay.
Consider B6, for which the “EC50(nM), inhibition of MM.1S cell proliferation” value (“EC50(nM), inhibition” for short) amounted to 1.12 nM and the “Relative activity (%), inhibition of MM.1S cell proliferation” value was determined as 166%. For B7, in that order: 2.15 nM and 86.8%. The matching figures for B8: 2.42 nM and 77.1%. For B9, in that order: 1.87 nM and 100%.

The next experiment addresses T2, BCMA. The experiment in a line: cell-based or functional assay. The source holds these as a separate data set.
B10: the “EC50(nM), inhibition” value is 12.2 nM.

For B11, the “EC50(nM), inhibition” value came out at 4.56 nM. Same read-out and setting: as for B9, the figure is 2.3 nM.
